Measurements taken from the supplement of paper PMC10567573.

B1: ZNF193 (parent)
chain: QCIECGKSFNRHCNLIRHQKIHTV

Variants of: B1
Test: protein stability index of a GFP-peptide fusion (GPS, HEK-293T) (PSI 1-6); higher = more stable
Settings: c terminus: a fixed tail appended
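Further: lentivirally expressed fusions sorted by FACS into six bins by GFP to DsRed ratio, PSI derived from sequencing read proportions per bin multiplied by bin number.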

Protein stability index of substitutions, site by site:
C13: Q 3.32; D 4.1; A 4.31; I 3.04; F 2.62; K 3.74; W 3.04; S 3.95; T 3.29
N14: K 3.38; D 5.09; S 3.71; F 2.32; C 3.43; V 2.83; P 2.25; M 3.5; I 2.6; Y 2.33; T 3.44
C2: A 1.66; T 1.74; F 1.07; E 2.77; N 2.45; G 2.13; H 1.6; Q 2.14; I 2.06; M 1.71; W 2.04
V24: I 2.8; D 3.83; H 3.83; N 4.22; L 3.43; G 3.56; C 3.99; P 4.21; T 3.84; F 3.41
I21: A 4; L 3.48; K 4.25; D 3.93; V 3.74; Y 3.6; H 3.77; W 3.55; N 3.52; G 3.51; T 4.39
C5: K 2.09; M 1.94; F 1.44; Y 2.26; I 1.53; W 2.07; L 1.54; N 1.79; P 2.49; A 2.36
F9: W 2.77; G 2.86; M 2.51; D 3.09; S 2.83; K 3.06; R 2.77; E 2.93
L15: W 4.43; F 3.32; E 3.06; S 2.62; P 2.39; Y 3.35; A 2.82
E4: M 3.1; H 4.27; I 3.54; Y 3.06; S 2.75; V 3.48; W 3.85; C 2.54; Q 3.43; L 2.66; R 3.71; T 3.42; F 3.94; P 1.39
Q19: H 2.72; D 2.03; M 3.48; P 1.99; L 2.75; N 2.81; E 3.73; S 3.46; G 2.5; F 2.73; T 2.79
G6: I 1.42; C 1.99; Q 2.44; M 2.11; A 2.38; D 2.62; K 3.54; Y 2.17; T 2.23; W 1.5
K20: G 2.38; D 2.83; C 3.47; V 2.66; F 2.95; Q 3.5; S 3.3; Y 2.2; N 2.61; E 3.29; W 2.22; T 2.63
T23: P 3.23; F 2.85; Y 3.31; H 3.9; M 3.33; W 2.56; V 3.26; E 4.38; G 3.31; N 4.08
Q1: W 2.3; R 4.1; I 3.28; A 3.14; D 3.5; F 2.83; N 2.56; Y 2.99; L 3.14; H 3.36; G 2.45; S 3.44; C 3.26; E 2.8
R17: A 3.31; N 3.24; F 2.22; W 2.66; E 4.18; T 3.75; D 3.78; G 3.07; S 3.4
N10: E 3.92; Q 3.73; D 3.88; W 3.51; H 3.91; C 3; S 3.48; G 3.29; M 3.14; L 2.48
